Measured values published in the NTF2 design screens of Basanta et al. (2020).

Assay: protease stability score; higher = more stable; yeast display proteolysis, trypsin and chymotrypsin;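 note: relative to predicted unfolded state with 0 unfolded-like and 1 meaning tenfold more protease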

Row | Sequence | protease stability score
1 | DEFNEATRRALHEEMKTRHTGDEDLFHRLADPDVRVIYGDKHIHGREEVVHWLREIRVKTHHLEIRRSHFQGEKAHVDGKLNGDFIFDGRTFTVQIHVEFIMIKWNGQWRIEMLRFE | 1.09
2 | DEFQHMAELASTLFQRSNHTGDEHSLQEMLDPNVRVIVGDKEFHGMEELLKTLRKELEILGVQRIETEVHQVNVQGNKINVDLILHVNGRERRIHLWAHKINGRWITERIEVR | 0.922
3 | DEFREIIRRAMEIYRHSERTGDEDTIREMVDPDVKLDIDGKEIVGWERLLEFLTRVDHIHLHLNNMKLQGDYVIHDGELRLNIDGRNISTRIVIIAEKVNGRWHMKHVEFR | 1.24
4 | DEFRKDADRALHMFEDKIRTGNWRELDKLLDPHVRFEYGDKIHHGREQFKYFMDRYDHITARDHKIDHVEFQGDYLHMDTTVDGELFIDGKNIRIVNKSKLVLLKVNGRWTMHFLSHD | 0.818
5 | DEFRRDALETHEDEIRDYLTGDWKSSKHLADPHARFVVGDKHYHGWHEMVRLVKENQEKFGIDHSEFRIHDSHVQGNKVIMDVEIHLTFNGKKIHTRSTILLVKINGVWLNTEIHID | 0.072
6 | DEFTELTREVLHRIVTHLRTGNEEELARLMDPNARLEINGKEFHGREEILRLIHELEKKMGIKHVDMVIRRDTIIGDYARVNGEIIIIVDGKEIRLDTEIFILKIDGKWFIRTESIR | 1.21
7 | DEHDEFLEISFKILKKTDDTGDERESRKLADPDARLHVNGVDFHGWEDFKKIMVDLGWRIEEIRIEHIRLVGDKIIIHERVRLRVGDKKRDLHFTIIALKINGRWHLRELHIE | 1.38
8 | DEHDEHYHRLMKVLVDMMATGDWRTIHELMDPDARSDIDGREVHGREEVIRVIKEFFDKFKGARIEIRLRRWDTINGRIDVRVQLDVNFNGRTEQYDTRIHNVVVDGVSEELTVEVK | 1.39
9 | DEHDELIERIARIYFEDELTGDWDSMMRLMDPRTRDDYNGKERHGWEEVETFFEELRKKFKGMKFHLEHLDVIGNKVHIIARWNVNGRHVQVHIDIIAFDGRVKSFSERVDIR | 1.15
10 | DEHDEMSQIASEILRTVIETGNENELERMVDPHVKSIVNGRTHHGRETLSELKKKLGWERVHNRIHHVEIVGDKVVVRGSIHWNGRDVRVEFIITKVDGRWIIEEIRFH | 1.07
11 | DEHDERMESVLRHLWHNWKTGDEDRLAELADPNTRTNINGKNFHGWEYMVREFSRFLKHIRIQDLKIRDFRVIDGRAISDVIVHGEVDGKDIDVKTRVELIIINGRFHTLSFTFE | 1.3
12 | DEHDERQHKIHRRFFEAYMTGNEDEMLQLADPNVRLHIGDKDLIGRELFSTWVRELHDRFPGMRIHIEDEDIQGEKSHHRVRIHVDGVTRNVRINQDWYNGRLREMSIDIR | 0.353
13 | DEHDESVRTAWEYYKRVIETGDEDISKKLADPHMKFEFENHSIHGWENIYRELTRLMREMRIHHVEIEHFRVYGDFVEIHIRVDGTVNGRRIITKMDLYITKIDGKWYLHSRRIE | 0.543
14 | DEHDEYLHHLLKVLWELIMTGDEHTFERLADPNVRLEVGNYFHVGRENIREMWKFLHDLLGVDHFRLHIRDLRVFNGVADAEYELRLNQGDKETRIEVRIYVHIVNGVLKSIRIETH | 1.44
15 | DEHDHILKRLSEELLHMMETGDEDALAELFDPHARMEYNGQEIHGRRDVERIRREILEKLGVDKIHTEVKEERFVGEKLEVHTHLHVDGVHFTVRIHWVKFNGRWVIRTLHIE | 1.38
16 | DEHDKETKEMLERFLEATETGNEKHSEELFDPRTRMEFDGVEIHGRETITKILTELWERADHIQFVLHDLRLVDGRVELDMRIRLHYDGQEYRRRSKVLLWKIDGRWVIRSERYE | 1.99
17 | DEHDKFVEEMARRHIRNLVTGDWEEQSRLMDPHVRIEIDINGRKREYHGREDWKYWLDELKRQFDHYEVRLRDFRIQGEYALFRLEESYIIGDKVIEQETELHIDVFNGRIRRVSFSVK | 0.956
18 | DEHDKHVHEMAERIMRSWHTGDEDTFHKMADPNVRVEIFVNGKNIIRHGREVWKHELERYDHVELRIKSMDAQGDFVHIDGELTINIGDKKHSTTLRIELEFINGRLKRISVHIH | 1.05
19 | DEHDKLLKELSERMFELWETGDEDRLHKLADPHALSRVGEFSIHGMRNHMEWLREWLRRVKNATIHVRDVDLQGNKSRFDHELIIDGVELKVIDNIVLVNGRIKEIRIEIN | 0.027
20 | DEHDKLMKDIAKLLLELWKTGDEEIFQHLMDPDTRMDVNGVQLHGMELIVKILRDEIHKIKNVKVLDKRNTVIGDKIHLDVEIVIGDKRIRMKLDVIVVNGRIKVFEIHTE | 1.36
21 | DEHDQHLKEWLDILLEVISTGDESRLQEMLDPNARLDVNGRKIHGRDEVLRAFHDHLDRFDHLHDLRIEHSNTVDGKAYIEGRDDGVVDGKRVFLRTRYFIITVNGKVHEVKIEID | 1.92
22 | DEHDRDARRFTDILLEAFMTGDEDLSHKMLDPNMRLHINGKIHHGRELATELLHEMRIERLVIEDYRIHYQGEKVHVTLHGRLHGRVDGKEHNSEVNIFINIEKVNGKWIVRSFTLKIH | 1.47
23 | DEHEDDARRMWELLEHDLQTGDEESIHRLVDPNAKVVYGDKEFVGREVLLRFASEWRVHLMHLDDIKIRTYGDKIDIDTTTITNGEFNGRKHVTRTHLRVHFEKVNGKWYVREVIIEIH | 1.31
24 | DEHEDHVLEVFRIILEILLTGDFREWRRLADPTVRLEFNGREYHGRDEILEFLTQHIRHWRLKHIHIDNYEVYDGRIEVHGHIRFTFNGKEHIIETRIIINVFDGRLHDEQYITH | 1.53
25 | DEHEDNLQHLIHVMTELFITGDWKELRHLIDPNALLHINGKDVHGWHLALEHIVRWREEMGVKHSHVERIHLQGDKTHLHMREHFNGRTVELEIRIIFVNGRLESHEMRIRNN | 0.822

Row | Sequence | protease stability score
26 | DEHEEAFREFLRLLLESLRTGDEHTLKRLIDPHARIDIDGQEFVGMEHLEHILKNMIKHIRYEDIEIEHFEFINGQVRFKTRYHGRINGKRDTLHIHIIITKINGKWVLEQLEFR | 2.15
27 | DEHEEALEEFLTEMIENIKTGDWHSELKLMDPHVRILFDGVIFHGREFFFQWLRHLLQRADHVNFTIDDKKYQGDKMVIETTFHLIINGQRIERYTVLLARKVNGRWYIEEVRLH | 2.33
28 | DEHEEASKLAIELLLTLERTGDEDKLRKLVDPNVRYDINGRELHGWEFMHRMIRHLRTEHVTIERVHVQGDWIHIDRILNVNVNGKEINIRTKINAQKINGVWIEREVEIQ | 1.09
29 | DEHEEDARRDLEKLARSLKTGDEDSLRTLFDPNTRNDVNGKDFIGWEELLRILREWRFHDMKVEDLEVQGNKVISHVRLDGTFDGRRDEMHVEIRAEKVNGRWRIRSYIVR | 1.77
30 | DEHEEDMERFLRELLDHWRTGDEDVIRELMDPHVKVDINGKIHHGREEAVHFLIEMRFRHFHVHDLRVQGEKADVDGRTHMEYNGRTVDQRITIHLVKIDGKWREKSITLE | 1.24
31 | DEHEEDVSKFTKMWEEDIRTGDEDSLYKMIDPHALLDFNGKEIIGREEVMHILHEELRELRIHNVHTHDIKVQGNKVNLNIRFNIEINGRIYDLQYKYDWRKINGRWFAHSEVIR | 0.764
32 | DEHEEDWRHVLKTLEDVMRTGDPHLFSHLADPHVRLRIDGRDHIGMELMWEILHKYKNITIEIEHSRVQGDKIEIRGTLDVDGRRYHVTIFADKINGKWIHREMEVT | 1.18
33 | DEHEEEAHKFVELKRRIWKTGDERLKSELADPNVKITFNGKELHGMEELIKVNREMGIKHVQIEDIDFQGNKVMVFGRSNIGDFNNRVEIIAEKYNGKWSLSEVRIH | 0.322
34 | DEHEEEAIRMLRLIFFLLHTGDWEVMHELFDPHARFTINGRRIHGMEEWLKFLREIRIEDSDIHVKRIDIQGDKMRIKGVVHLEGNVNGRREHTELHIDVHLEKVNGRWIIRLIEFK | 2.35
35 | DEHEEELKRILELIEHLIHTGDEDTMLHLADPNVRSHVNGRDRHGWNLYLRLLEELVWRLGIKHMEIHSTTAIDGRVIIHMRLHVGDKTIHVILLFQVVDGRVKSSSVEVHEE | 1.44
36 | DEHEEEVLRIARDFLEALRTGDEEHMTELMDPHVRLEVDGRDLHGREEVLRLLVEQWERIKNVTWEVERLEIVNGRLIIQLRVHVNGQNHDVRLYINVVDGVVKSIRHEKH | 1.47
37 | DEHEEEVREMHRVWVELLRTGDWRILAEMFDPNVRMHIGDKEHHGREAIEIHIEKFKNVRLEITRVHIQGEYIVIEGVINIDGKTHTLRFHFVLVNGRLKQYDEHSE | 2
38 | DEHEEFAERNLKLLTELEETGNEDEIRKQADPHVRIEIGDKDIVGMHLWAKWVTHVKDRFDHIEVRLHRVHVQGDKILMHTQLILTQGNYRREFRTEVIIRKINGRWVLHSMHFH | 1.42
39 | DEHEEFLHRWAEQFLKNMITGDFDRLHELLDPHVRWRIGDKDSIGWKTIIDVVKDLLREIRIEDVTLHRIEVQGDKSIIVITTIVEIDGRRYRTTVIIRMRIIDGRLKSVDVEER | 1.31
40 | DEHEEHVHEITRLIIEAELTGDFERMKKMFDPNAKLILLINGREDTNHGMDFVRFWLKEHLERVDHRRVELKRWDVVNGVSHNDVTLHLEVGEWKITVKMHLHIVVVDGRLKSIKIEIR | 1.4
41 | DEHEEHWREMFERWLFALITGDEETLHKLLDPNVKMDINGQHHVGREQVLHEFRKFHDVLGVKVSRNFHVKDKEVQGDKLHLTIEFRGEFNGKEEITQARIVIVKINGRWTIERVELE | 1.97
42 | DEHEEISRRLAEFENEWINTGDEESFARNADPDVRIHVGEFHSHGREEMIRILKEFFRWLGVKHFRPTHIEIQGEKVIIYLEWHFDGRTHRIQIISVVVDGRRKSFQVHKL | 0.185
43 | DEHEEKIHFILHILQEAWRTGDESQLENLLDPNVRIIIGDKKTHGREAVINLFNHWRVENIRVHLRDVRVQGDKIHLETEIQVDGNVNGKTDRIEFETEFIIRKVDGRWLIEVIRMH | 2.17
44 | DEHEEKLIKHMESLLHWEETGDEESMLKNADPNARHDVNGVEFHGMHRFVHHVIKRGWRFRMEVEHVDAFDGRYRVEGTLILNFDGVEHRHHVILRFIVIDGRLHERKVEVR | 1.46
45 | DEHEELIMEFLRRLLEWHLTGDEEYISRNFDPNTQFDILIGDKRYHIHGREEIHEWLHEFLRELRVHIIVHEMRAQGDKAHNRGTLNLTYGDKRRTVDVHIFIVVVNGRYKKIIVQVK | 1.62
46 | DEHEELLEHIIRLWLKYIHTGDFRNWMKYADPNAKWRTENHEHHGREEIARDLHEFNKKLGMEFRIDLRHFEIQGDKVRMHTEYILHIGDYTERRETEVTVIIVDGKIKSIRLLVR | 1.67
47 | DEHEELLRRIFELLLHALKTGDEDLLYKMADPNTRSIIGDKIHHGMEEHRKAVEKWLREMGVKHIEIKRVHIQGEKIHIDTHWKVGDKSETVKINIHVIDGRLTEIHIEIE | 1
48 | DEHEELLRRLADEWFKSLLTGDEDRLLELADPNMRIRLLINGRDEKIHGWEELVRWFREIRFRSMDIDSFTLVNGKIQIRFKYRGRVNGQTHETRSEFLLIVIDGKVTHVEVRLE | 2.46
49 | DEHEELMEEFMRKILHAWLTGDWDLINEMADPDVRTNINGRNEIGREEFEKLWQEIRFRRFDLKRWHVFNGVIHIDGHIDGEVNGRRTKRDVLIRLFIFNGRLKKEEVEYL | 1.55
50 | DEHEELMRRLMQLWMENWLTGDEDVLYKLADPNAKWDINGVKLHGREKMNEDRKEILERHGATFYLEIRDFTVINGRAHVDGHEDYIINGKRIRTDVQIILVIVNGKFKSEEVKIR | 0.292
